Assay results taken from the Human Domainome abundance scans (Beltran et al. 2025).
± gives the uncertainty stated by the source.

B1: Nuclear receptor subfamily 1 group D member 2, residues 103 to 171; numbered along this chain, Q14995 (parent)
chain: CKVCGDVASGFHYGVHACEGCKGFFRRSIQQNIQYKKCLKNENCSIMRMNRNRCQQCRFKKCLSVGMSR

Variants of: B1
Experiment: abundance fitness (aPCA) (normalised: wild type 0, dead -1); higher = more abundant; growth selection in yeast, the domain comes from the species named
Details: Homo sapiens

Row | Variant | abundance fitness
1 | CKVCGDVASGFHYGVFACEGCKGFFRRSIQQNIQYKKCLKNENCSIMRMNRNRCQQCRFKKCLSVGMSR [H16F] | -0.062 ± 0.16
2 | CKVCGDVASGFHYGVHACEGCKGFFRRSIQQNIQYKKCLKFENCSIMRMNRNRCQQCRFKKCLSVGMSR [N41F] | -0.717 ± 0.41
3 | CKVCGDVASGFHYGVHACEGCKGFFRRSIQQNIQYKKCLKNENCSIMRMNRNRCQQCRFKKCLSVGMER [S68E] | -0.087 ± 0.3
4 | CKVCGDVASGFHYGVHACEGCKGEFRRSIQQNIQYKKCLKNENCSIMRMNRNRCQQCRFKKCLSVGMSR [F24E] | -0.68 ± 0.23
5 | CKVCGDVASGFHYGVHACEGCKGFFRRSIQQNIQYKKCLKNENCSIMRMNRNRCQQCRFKKCLSVGMCR [S68C] | -0.097 ± 0.15
6 | CKVCGDVASGFHYGNHACEGCKGFFRRSIQQNIQYKKCLKNENCSIMRMNRNRCQQCRFKKCLSVGMSR [V15N] | -0.954 ± 0.35
7 | CKVCGDVASGFHYGVHACEGCKGFFRRSIQQNIQYKKCLKNENCSIMRMNRNRYQQCRFKKCLSVGMSR [C54Y] | -0.576 ± 0.16
8 | CKVCGDVASGFHYGVHACEGCKGFFKRSIQQNIQYKKCLKNENCSIMRMNRNRCQQCRFKKCLSVGMSR [R26K] | -0.349 ± 0.34
9 | CKVCGDVASGFHYAVHACEGCKGFFRRSIQQNIQYKKCLKNENCSIMRMNRNRCQQCRFKKCLSVGMSR [G14A] | -0.871 ± 0.23
10 | CKVCGDVASGFHYGVHACEGCKGFFRRSIQQNIQYKKCLKNVNCSIMRMNRNRCQQCRFKKCLSVGMSR [E42V] | -0.798 ± 0.14
11 | CKVCGDVASGFHYGVHACEGCKGFFRRSIQQNIQYKKCLKNENCSIMSMNRNRCQQCRFKKCLSVGMSR [R48S] | -0.002 ± 0.069
12 | CKVCGDVASGFHYGVHACEGCKGFFRRSIQQNIQYWKCLKNENCSIMRMNRNRCQQCRFKKCLSVGMSR [K36W] | -0.33 ± 0.2
13 | CKVCGDVASGFHYGVHACEGCKGFFRRSIPQNIQYKKCLKNENCSIMRMNRNRCQQCRFKKCLSVGMSR [Q30P] | -0.523 ± 0.32
14 | CKVCGDSASGFHYGVHACEGCKGFFRRSIQQNIQYKKCLKNENCSIMRMNRNRCQQCRFKKCLSVGMSR [V7S] | -0.083 ± 0.075
15 | CKVCGDVASGFHYGVHACEGCKGFFRRSIQQNIQYKKCLKNENCSIMRMNRNRCQMCRFKKCLSVGMSR [Q56M] | 0.002 ± 0.11
16 | CKVCGDVASGFHYGVHACEGCKGFFRRSIQQNIQYKKCLKNENCSIMRMNRNRCQQCMFKKCLSVGMSR [R58M] | 0.036 ± 0.09
17 | CKVCGDVASGFHYGVHACEGCKGFFRRSIQQNIQYKKCLKNENCSIMRMNRNRSQQCRFKKCLSVGMSR [C54S] | -0.688 ± 0.083
18 | CKVCGDVASGFHYDVHACEGCKGFFRRSIQQNIQYKKCLKNENCSIMRMNRNRCQQCRFKKCLSVGMSR [G14D] | -0.579 ± 0.49
19 | CKVCGDVASGFHYGVHACEGCKGFFRRSIQQNIQYKKCLKNENCSIMRMNRNRCQQCRGKKCLSVGMSR [F59G] | -0.395 ± 0.11
20 | CKVCGDVASGFHYGVHACEGCKGFFRRSIQQNIQYKKDLKNENCSIMRMNRNRCQQCRFKKCLSVGMSR [C38D] | -0.894 ± 0.31

Row | Variant | abundance fitness
21 | CKVCGDVASGFHYGVHACEGCKGFFRRSIQQNIQYKKCLKNENCSIYRMNRNRCQQCRFKKCLSVGMSR [M47Y] | -0.482 ± 0.24
22 | CKVCGDVASGFHYGVHACEGCKGFFRRSIQQNIQYKKCLKNENCSIMRMNRNRCAQCRFKKCLSVGMSR [Q55A] | 0.099 ± 0.077
23 | CKVCGDVASGFHYGLHACEGCKGFFRRSIQQNIQYKKCLKNENCSIMRMNRNRCQQCRFKKCLSVGMSR [V15L] | -0.3 ± 0.1
24 | CKVCGDVASGFHYGVHACEGCKGFFRRSIQQNIQYKKCLKNENCSIMRMNRNRCQQCRFWKCLSVGMSR [K60W] | 0.021 ± 0.2
25 | CKVCGDVASDFHYGVHACEGCKGFFRRSIQQNIQYKKCLKNENCSIMRMNRNRCQQCRFKKCLSVGMSR [G10D] | -0.433 ± 0.22
26 | CKVCGDVASGFHYGVHACEGCKGFFRRSIQQNIQYKKCLKNENCSIMRMNRNRCQQCRFKKCNSVGMSR [L63N] | -0.911 ± 0.47
27 | CKVCGDVASGFHYGVHACEGCKGFFRRSIQQNIQYKKYLKNENCSIMRMNRNRCQQCRFKKCLSVGMSR [C38Y] | -0.785 ± 0.44
28 | CKVCGDVASGFHYGVHAAEGCKGFFRRSIQQNIQYKKCLKNENCSIMRMNRNRCQQCRFKKCLSVGMSR [C18A] | -0.515 ± 0.18
29 | CKVCGDVASGFHYGVHACEGCKGFFRRSIQQNIQYKKCLKNENCSIMRMNRNRCQQCCFKKCLSVGMSR [R58C] | 0.417 ± 0.39
30 | CKVCGDVASGFHYGVHACEGCKGFFRRSIQQNIQYKKCLKNENCSYMRMNRNRCQQCRFKKCLSVGMSR [I46Y] | 0.082 ± 0.22
31 | CKVCGDVASGFHYGVHACEGCKGFFRRSIQQNIQYKKCLKNENCSIMRMNPNRCQQCRFKKCLSVGMSR [R51P] | 0.216 ± 0.16
32 | CKVCGDVASGFHYGVHACEGCKGFFRRSIQQNIQYKKCLKNENCSIMRMNRNRCYQCRFKKCLSVGMSR [Q55Y] | -0.08 ± 0.17
33 | CKVCGDVASGFHYGVHACEGCKGFFRRSIVQNIQYKKCLKNENCSIMRMNRNRCQQCRFKKCLSVGMSR [Q30V] | -0.092 ± 0.098
34 | CKVCGDVASGFHYGVHACEGCKGFFRRSIQQNIQYKKCLKNENCSIMRMNRNRCQQCRFKKCLDVGMSR [S64D] | -0.051 ± 0.1
35 | CKVCGDVASGFHYGVHACEGCKGFFRRSIQQNIQYKKCLKNENCSWMRMNRNRCQQCRFKKCLSVGMSR [I46W] | -0.709 ± 0.26
36 | CKVCGDVASGFHYGVHACEGCKGFFRRSIQQNIQYKKCLKNENCSIMRMNRNRCQQCRFKKCLHVGMSR [S64H] | -0.449 ± 0.19
37 | CKVCGDVASGFHYGVHACEGCKGFFRRSIQQNIQYKKCLKNEKCSIMRMNRNRCQQCRFKKCLSVGMSR [N43K] | -0.231 ± 0.12
38 | CKVLGDVASGFHYGVHACEGCKGFFRRSIQQNIQYKKCLKNENCSIMRMNRNRCQQCRFKKCLSVGMSR [C4L] | -0.902 ± 0.17
39 | CKVCGDVASGFHYGVHACEGCKGFFRRSIQQNIQYKKCLKNENCSIMRGNRNRCQQCRFKKCLSVGMSR [M49G] | 0.044 ± 0.12
